This note sets out measurements from a protein production outcome set (Wang et al. 2014).

The data set is described as follows: label from the status in PepcDB records.
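Further: failed if final PepcDB status was selected cloned or expressed and not failed if soluble or beyond.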

Take “MNAQLQYQIEQFFYRKSELCDAQDWDAYLQLFAVDSEFHLPQWDSEHVYTRDPKREMSLIYYANRSGLEDRVFRLRTGKAASTIPMPRTLHMVSNLRIAEGDNGLLRVRLNWHTLFYRLATSEEFYGHATYDLKPQGDSWLIQRKHVLLLNDTINSVLDFYHL”: the protein production entry is given as “failed”.

With “MNARVHQPVHTAQHAPSYYAATLNRRIECPPLAGEEQADVCVVGGGFSGVNTALELAQRGFSVVLLEAHQIGWGASGRNGGQLIRGVGHDVEQFLPVIGADGVKALKLMGLEAVEIVRRRVEQYAIDCDLRWGYCDLANKPGDYQGFREDMEELQALGYRHEMRLVPAAEMRSVIGSDRYVGGLVDMGSGHLHPLNLVLGEAAAAQSLGVRLFERSTVMRIDYGTEVQVHTATGKVRAKTLVLGCNAYMNDLNPLLGGKVLPAGSYVIATEPLDEKLARQLLPQNMAVCDQRVALDYYRLSADNRLLFGGACHYSGRDPSDIAAYMRPKMLEVFPQLANVRIDYQWGGMIGIGANRLPQIGRLPGQPNVYFAQAYSGHGVNATHLAGQLLAEAIGGQQSDGFDLFAKVPHITFPGGKLLRSPLLALGMAWY”, the protein production entry is recorded as “failed”.

Take “MNAVTEGRKVLLEIADLKVHFEIKDGKQWFWQPPKTLKAVDGVTLRLYEGETLGVVGESGCGKSTFARAIIGLVKATDGHVAWLGKELLGMKPDEWRAVRSDIQMIFQDPLASLNPRMTIGEIIAEPLRTYHPKMSRQEVRERVKAMMLKVGLLPNLINRYPHEFSGGQCQRIGIARALILEPKLIICDEPVSALDVSIQAQVVNLLQQLQREMGLSLIFIAHDLAVVKHISDRVLVMYLGHAVELGTYDEVYHNPLHPYTRALMSAVPIPDPDLEKNKTIQLLEGELPSPINPPSGCVFRTRCPIAGPECAKTRPVLEGSFRHAVSCLKVDPL”: the protein production result is recorded as “failed”.

On to “MNAYLSMNSDWRASMTQTVLVLGASGRFGRNAAEAFGRAGWTVRQFDRKRDDLDAAARGADVIVNAWNPPYPDWAATVPGLHARVIKTAQATGATVIIPGNVYVFGADTPAPWGPDSPHAATNPLGRIRIDMEAAYRASGVRTILLRAGDFLDTCASGNWFDQVMIKRLDKGRFTYPGNPDIPHAWAYLPDLARATVTLSERRETLPVFCDLTYPGYTMTGRQIATGLEQVTGRRVALKRMNWLPLHLARPVWSLAGSLLEMRYLWNTPHSLDGAAFAKVLPEFVQTPFEQALASAIPARLLAAQVHPDQAVAAGL”, for which the protein production result is reported as “failed”.

With “MNAYYYLAIAICAEVIATVSMKAVKGLSTPLPLALIIVGYGVAFWMLTLVVRTVPVGVAYAVWAGMGIVMVSIAALFLYGQKLDIPAMLGMALIVLGVVVIQLFSKTAGH”, the protein production entry is “failed”.

In the case of “MNDFKNQWLRKRTFAIPASRLTGRLTTLKSDVPAADSLFWKLWNGSLDTAVQVLQTDYFKGIAAGTLDPNAYGSLMVQDGYYCFRGRDDYATAATCAQDETLREFFKAKAKSYDEYNETYHQTWHLREASGLIPGTDIKDYADYEAYVAGSLASPYMCVVMLPCEYLWPWIANFLDGYTPTNSLYRFWIEWNGGTPNGAYQMGNMLEQYRDKIDEDKAVEIFNTAMNYELKVFTSSTILTTIENGK”, the protein production result was “not failed”.

For “MNDFLFYLDIFGVIVFALSGALMAGRYQLDPFGVVVLASVTAVGGGTIRDVILQTPVFWVEKPYYLYVILATAILTIVLIRQPKRIPKRFLLIADALGLALFAVLGTQKALYLGAPIPVAVVLGTITGIAGGMIRDVLCNVIPMILREEIYALAAMLGGSLFIILHGLNWNDTNAMIVSISAALALRLAAIYWHVSLPAFHIVEKPKKEKGTTKIIEKK”, the protein production entry was “failed”.

As for “MNDFTFRCERPSLRLFAAAVVAVLLGLAPASSESVRKSGYAIGTESCGSGDLAFPRLQIDMKAGFCAGLVASEEDRLKFPRSIVQVPGRDLFVVADMGGWGHTDGRLLLLDPHAPPGQRFKELLTGLEYPFGLVIGPDRKLYASTAEAIFRFDPLADNPRGTVETIIRHMPGRRITLPDGTRLDESAHPLKQFVFDRNGRLFVNVGSHSDDCITPAPITKPCAAAEGASAMAAIWLFTPPSGGVFPALRPNDPDPPHTVYARGLRNSMALALHPNFPDAGYAFLQGENGRDLPDIFKPNEEINAIEQGRHYGWPYCYDLSTPSPEFRSVLQSGTYKSLCTANALYKPPFSLLPPHGAPLAMLYYHGAKFPELEGKLLVGLHGYRPTGSRVLAYDVDDHGFPRPSPAPVRYHVSCAADPTHSFQTDAGEVAAAPFEELIAGWHRVNGARPQGAPVGMTVAEDGAIWLVEDKNQTVIRIDRAAGDAPQPLPCDTRSQAMIDQLAAFIARDAQNSVRLTTLRKGLVEKHCLGCHSDFGLKAGQSEAEKDATVLRFMLSQDGWIYPGDPDSGRLRTRLRGLGAEKLMPPGGESLPKTEPGYARLLDTADLLVARMVPGTRIRIKAGPPQRRFFGKTNKECGEIPAAKVVVVTQRSAVDKPGFSRFFRPADPYLNGECTDDDGYYIRQEFLVPVQ”, the protein production result is recorded as “failed”.

With “MNDLLSSYLPVLIFIVVSAVIAGGLLVIPYIVAYRSPDPEKLSAYECGFNSFNDARMKFDIRFYLVSILFIIFDLEVAFLFPWAVSFGSIGMFGFWSMIIFLALLTVGFIYEWKKGALEWD”, the protein production result is reported as “failed”.

As for “MNDPMGETGFSRESAPEIVFSETDMAAAEQLMHLSEEETVSCSSSTGGDCGGGGGDKIKHEYVSSRIGNELNDGVRGNSILGVEKKRKRTVMKEKKFRSLESIYKGTKEIRD”, the protein production entry was “failed”.

Take “MNDRSLGILLMFLTVIFWGISFVATKIILVYIPPITLGFIRFAIAAMILIVLIRNFPSYSKKDFLNLVLAGFLGITSYFLFENVALEYTTATNAALIAATVPIFYLMVSDLVERRIPSKIQYFGSLIGLFGVSILILNGRLILELNPIGDLLMIGAVLSWVLYTFVIQKLEKHDNLTVTRDITLIGVLLSVPFMLLEFGSKGVLDLGVFLNPPLTFAVLYLAIFCSAIAYLFWNMSIRLAGASTTNNGIYFIPIVAMIADSIILKNIPNIYATIGAVLVLFGVYISEKGDKLKIKL”: the protein production result was “failed”.

For “MNEHNITNTSLALSMLLVVVAMLISHKEKLALEKDILWSVCRAVIQLIIVGYVLKYIFGVNHAALTLLMVLFICFNAAWNAQKRSKYIDKAFLSSFIAITVGAGLTLTVLVLTGSIEFAPMQVIPIAGMVAGNAMVAVGLCYNQLGLRFHSEQQQIQEKLSLGATPKMASAGLIRDSIRASLIPTIDSAKTVGLVSLPGMMSGLIFAGIDPVKAIKYQIMVTFMLLSTASLSTIIACYLTYRKFYNSRHQLVVMPLKKS”, the protein production result is given as “failed”.

On to “MNEKFNINIAWFLIILGGIIECFWVSGLKYSTEIWHYILTAIGVCISFTCFLKACERLEVSITYSVFVGIGTIGVVLNEMFIFNEAVSIIKLVLIAILLLSIIALKWVSKEA”, for which the protein production entry is given as “failed”.

With “MNENTKVIKGRTGDWEMVLGLEVHAQVASKSKLFSGAAVGFGAGPNEQVSLVDAAMPGMLPVLNRFCVEQAVKTGLGLRAQINLKSRFDRKNYFYPDLPQGYQISQFDQPIVGEGVVSVERDDGTTFDVRIERLHLEQDAGKSLHDQDPNATYVDLNRAGTALMEIVSKPDMRTSEEAAAYVKKLRTILVYLGTCDGDMEKGNLRADVNVSVCRPGDYEKFRATGDFKHLGTRCEIKNVNSYRYIQQAIEYEARRQIEILEDGGKVDQETRLFDPTKGETRSMRSKEEAHDYRYFPDPDLLPLVLDPAWVKSIEETLPELPDAKKARLQSQYGLSAYDAGVLIIDADRADYFEAAAKGRDAKLVANWVTNELLAKLSAAGTEFTNSPLPHTDIAQLVELIENGTISSKIAKEVFEHMWAGEGRPAEIVEKRGLVQINDTGAIEKAIDDLIAGNPDKAEAVKDKPQALGWFVGQVMKATGGKANPGTVNELLRKKLGVE”, the protein production result is given as “failed”.

Regarding “MNEQKNTAENTVNKQKDLETAGKTREKEDPKQLLLTASETDNYEDKLRIYDKALGLDPLYFDAWLQKGFVLDRLGRSNEALDCYNKALEIVPDHLGIKCLKGFAYSNLKDYEKAIECYDEVLKVNSEDVFSLFQKGSVLENLGRYGEAMEAYDRALEIDPADILIREKKMRLLGLIYKKGTLVDSPDSDFN”, the protein production entry is “failed”.

Consider “MNEQQRLASQQVNSSTKKEEKDYSKYFESVYQPPSLKEAKKRGKEEVKIERDFGLPEEFRNFGTGRKFYIRTYGCQMNEHDTEVMAGIFTALGYEPTFSTEDADVVLLNTCAIRENAENKVFGELGHLKALKRRNPDLLIGVCGCMSQEESVVNKIMQKNQHVDMVFGTHNIHRLPYILKDAMFSKETVVEVWSKEGDVIENLPKVRRGDIKAWVNIMYGCDKFCTYCIVPYTRGKERSRRPEDIIQEIRHLAANGYKEITLLGQNVNAYGKDFEDIEYGLGDLMDELRKVDIARIRFTTSHPRDFDDHLIEVLGKGGNLVEHIHLPVQSGSTEMLKIMARKYSREHYLELVRKIKEAIPNAVLTTDIIVGFPNETDEQFEETMSLYREVGFDTAFTFIYSPREGTPAAKMKDNVPMEVKKERLQRLNALVNKLAIEKNDRYKGQIVEVLVDGESKNNPEVLAGYTRTNKLVNFVAPKSLIGQLVKVKVTDAKTWSLNGELVEEPIEVELEHHHHHH”, for which the protein production entry is on record as “failed”.

Turning to “MNESGFLIDTHAHIDGHDFAADFDAMLSRAWEAGLSHIVTVGADLESSRAAVALAGRHERIWCAVGIHPHDAGRVTDRCYDEIRTLAQGNPKVAAIGEIGLDFFRDRSPRDEQEQVFRRFIRLARELALPIVVHDRDAHERVMAILREEKARDVGGVLHCFSGDLAMARECVDMGFLISIPGTVTYPSNEALREVVRGVKIEHLLVETDCPYLTPVPHRGKRNEPAYVRLTAEKVAELKGLSLEDVGRITSLNARRLFGIGESDQAARIAYRIRNSLYLNITNRCSNRCSFCAKFDDYTVKGHHLRLDHEPDSAEVLAAVGEPGPVDEIVFCGFGEPMLRLDLIVEVARELKKRGFRIRINTDGQANLVHGRNVLPELQGLVDCISVSLNAADADTYARLCNTPFGTNGFNGICRFLEEARLYIPTVVATAVTVPGIDVAAVRALAESLGVEFREREFAEVGLEHHHHHH”, the protein production entry is on record as “not failed”.

For the sequence “MNFKKLSNAKVSVMAVVLSVGILSGYSALNKQVTLVVRGEERTISTFSSNVGDLLESQNISYDANDIVTLDENTKLSNGDKIEVIDVKEKTVVETKDIPFEVTVVEDGSLLKGDSKVKEEGKSGKSELIYKETYHNGKKVEKEFVKKVVKAEPVNKVVSKGTKVEMQVASSRGESSRRMASSSSSSSSSNNGKNMRVVATAYTGHSITATGTKPKWGTIAVDPKVIPYGTKVYIPQFDMVFTAEDCGGAIKGNKIDIYMNDSKTVYNWGRKTIDIRILK”, the protein production result is “failed”.

For the sequence “MNFLVIGSSLAFLLYILATLAIVTRLFHPKGPNITLVLSLATAAIIVHGFNDGLLFFSQDTINFNLPNVISLVSLIITIAVTLVSLRFKVNLLLPVIYGFTGLWQLVILFIPPIDSIPLVVEKVILLSHISFALIAYCVLIIATLYAFQVTYINLKLKSKNLTAVAHLPPLMQVEKQLFSILTVGTAILFISQIIGFVFLDGFLAKENAHKTILSLLSFAIYGLILWGHFEKGWRGHKVLVLMVSASALLTLAYFGSRFVKEFIL”, the protein production entry was “failed”.

Regarding “MNFPLVLLILLVVTGGIWLLDYFVLRHKRVSGNTEEPWWVEYPKSFFPIILIVFSLRSFLVEPFKIPSGSMIPTLLIGDFILVNKYTYGIRLPVANLKIIDMNEPQRGEVMVFRFPEDPSIDYIKRVIGVPGDMVTYRNKQLSINDVPVQLEQGGDYKYIDGPAYIYTQRFKENMDGSEHDILINEDMPDIQLSAIHHFPNRENCTFDRTGFSCKVPEGNYFTLGDNRDGSSDSRYWGFVPENHIVGKAFLIWWNFNDLSRIGTLIK”, the protein production result is “failed”.

As to “MNFRTGQPSDAAALAAISIEVWLGTYMRKGVSAFFAEYALNEFTSTKMASLLKDPNEHVIVSENEGGIDAFIRLGQGRAAPVSGCSTLEIATLYVQPRHHRRGLGRALLEQGLAYARQASAPSVWLTTNSENAPAIAFYLEQGFEKVGTTHFNIGDQ”, the protein production entry is reported as “not failed”.
